Our source for the self-cleavage values is the RNAGym collection of RNA variant scans (doi:10.7554/elife.90254).

The labels stand for the following.
B1: LINE1-mini (parent)
chain: GGCAGAGCUCAACACAGCGUGGCAAAGUGGCUGUGGCUAGACUGCC

The variants in the data set derive from B1. As to the kind of experiment: self-cleavage, relative activity (ratio to wild type); higher = more cleavage; in vitro, sequencing; the parent is a self-cleaving ribozyme.
As to C15G G40U, the self-cleavage was determined as 0.09.

With A14G U28C, the self-cleavage is 0.04.

For the variant A14G U28G, the self-cleavage is 0.3.

Regarding A14G U28A, the self-cleavage was found to be 0.39.

As to A14G G29U, the self-cleavage was determined as 0.29.

For A14G G29C, the self-cleavage was found to be 0.37.

For the variant A14G G29A, the self-cleavage was 0.78.

As for A14G G33A, the self-cleavage was determined as 0.07.

Regarding A14G G33U, the self-cleavage was determined as 0.16.

A14G G33C: the self-cleavage came to 0.03.

Regarding C15A C37A, the self-cleavage was 0.08.

On to C15A C37U, for which the self-cleavage amounted to 0.1.

Regarding C15A C37G, the self-cleavage came to 0.04.

Regarding A14G G40C, the self-cleavage was found to be 0.09.

With A14G G40U, the self-cleavage is 0.12.

For the variant A14G G40A, the self-cleavage amounted to 0.1.

For C15A C18U, the self-cleavage amounted to 0.14.

In the case of C15A C18G, the self-cleavage was found to be 0.09.

C15A C18A: the self-cleavage was determined as 0.04.

For A14U A41C, the self-cleavage came to 0.06.

As to A14U A41G, the self-cleavage was 0.1.

For A14U A41U, the self-cleavage came out at 0.25.

As to C15A G40A, the self-cleavage turned out to be 0.04.

Consider C15A G40C, for which the self-cleavage stood at 0.07.

With C15A G40U, the self-cleavage stood at 0.06.

With A14G U20C, the self-cleavage was found to be 0.78.

As for A14G U20A, the self-cleavage was determined as 0.23.

With A14G U20G, the self-cleavage amounted to 0.15.

With A14U U38A, the self-cleavage was found to be 0.34.

Regarding A14U U38G, the self-cleavage was found to be 0.06.

As for A14U U38C, the self-cleavage was determined as 0.17.

As to A14G G21A, the self-cleavage is 0.71.

Take A14G G21U: the self-cleavage was found to be 0.79.

As to A14G G21C, the self-cleavage stood at 0.24.

As to A14U U32C, the self-cleavage was 0.15.

On to A14U U32A, for which the self-cleavage was found to be 0.05.

Regarding A14U U32G, the self-cleavage worked out at 0.1.

As for A14U C18G, the self-cleavage turned out to be 0.19.

Take A14U C18A: the self-cleavage is 0.11.

As for A14U C18U, the self-cleavage was determined as 0.08.

For A14U A25G, the self-cleavage was 0.1.

Regarding A14U A25C, the self-cleavage is 0.3.

Regarding A14U A25U, the self-cleavage came to 0.32.

As to C15G C23U, the self-cleavage turned out to be 0.08.

For the variant C15G C23A, the self-cleavage came out at 0.06.

Regarding C15G C23G, the self-cleavage stood at 0.12.

Turning to C15A G44A, the self-cleavage came to 0.08.

In the case of C15A G44C, the self-cleavage is 0.04.

C15A G44U: the self-cleavage worked out at 0.04.

As to A14G G19C, the self-cleavage was determined as 0.25.

On to A14G G19A, for which the self-cleavage worked out at 1.03.

Consider A14G G19U, for which the self-cleavage was determined as 0.54.

On to A14U G27U, for which the self-cleavage was 0.29.

On to A14U G27A, for which the self-cleavage stood at 0.37.

Turning to A14U G27C, the self-cleavage came out at 0.16.

C15A C31U: the self-cleavage is 0.04.

For the variant C15A C31G, the self-cleavage was 0.03.

In the case of C15A C31A, the self-cleavage is 0.05.

In the case of C15G C31U, the self-cleavage came to 0.04.

Turning to C15G C31A, the self-cleavage was 0.02.

For C15G C31G, the self-cleavage stood at 0.03.

Regarding C15A G35A, the self-cleavage was 0.1.

On to C15A G35C, for which the self-cleavage came out at 0.05.

Take C15A G35U: the self-cleavage was found to be 0.08.

With A14U U34A, the self-cleavage came to 0.82.

Regarding A14U U34C, the self-cleavage came out at 0.17.

In the case of A14U U34G, the self-cleavage is 0.75.

For A14U C37A, the self-cleavage came out at 0.08.

Take A14U C37G: the self-cleavage worked out at 0.05.

Take A14U C37U: the self-cleavage was determined as 0.03.

Turning to C15A A25U, the self-cleavage worked out at 0.07.

As for C15A A25G, the self-cleavage is 0.12.

On to C15A A25C, for which the self-cleavage is 0.04.

Consider A14U U20G, for which the self-cleavage came to 0.28.

A14U U20C: the self-cleavage turned out to be 0.19.

With A14U U20A, the self-cleavage worked out at 0.42.

Regarding A14U G17C, the self-cleavage stood at 0.22.

In the case of A14U G17U, the self-cleavage amounted to 0.1.

For A14U G17A, the self-cleavage is 0.13.

Take A14G U32C: the self-cleavage was determined as 0.08.

For the variant A14G U32G, the self-cleavage worked out at 0.04.

Turning to A14G U32A, the self-cleavage amounted to 0.06.

C15G G29U: the self-cleavage stood at 0.06.

C15G G29C: the self-cleavage was 0.1.

C15G G29A: the self-cleavage worked out at 0.09.

Turning to C15G U28C, the self-cleavage turned out to be 0.04.

For C15G U28G, the self-cleavage turned out to be 0.04.

Consider C15G U28A, for which the self-cleavage amounted to 0.04.

For the variant C15A A16U, the self-cleavage is 0.06.

Take C15A A16G: the self-cleavage came out at 0.07.

On to C15A A16C, for which the self-cleavage stood at 0.08.

As for A14U G21A, the self-cleavage was 0.62.

For A14U G21C, the self-cleavage turned out to be 0.57.

Turning to A14U G21U, the self-cleavage worked out at 0.74.

In the case of C15A G19A, the self-cleavage was 0.06.

Consider C15A G19C, for which the self-cleavage worked out at 0.14.

With C15A G19U, the self-cleavage amounted to 0.09.

For the variant A14U U28G, the self-cleavage is 0.3.

Regarding A14U U28C, the self-cleavage came out at 0.35.

On to A14U U28A, for which the self-cleavage turned out to be 0.14.

Take C15A A26C: the self-cleavage is 0.08.

Take C15A A26G: the self-cleavage turned out to be 0.06.

On to C15A A26U, for which the self-cleavage stood at 0.08.

Turning to C15G U38C, the self-cleavage was 0.03.

As to C15G U38A, the self-cleavage was found to be 0.03.

C15G U38G: the self-cleavage amounted to 0.03.

For the variant C15G C46G, the self-cleavage was 0.03.

As for C15G C46A, the self-cleavage was 0.11.

Take C15G C46U: the self-cleavage was determined as 0.06.

With A14U A24C, the self-cleavage came out at 0.15.

Consider A14U A24G, for which the self-cleavage was 0.79.

Consider A14U A24U, for which the self-cleavage stood at 0.42.

Consider C15A U32A, for which the self-cleavage was determined as 0.06.

With C15A U32C, the self-cleavage stood at 0.07.

As for C15A U32G, the self-cleavage turned out to be 0.06.

Turning to C15G G17C, the self-cleavage was found to be 0.04.

With C15G G17U, the self-cleavage worked out at 0.05.

As for C15G G17A, the self-cleavage is 0.05.

As to A14U, the self-cleavage is 0.45.

Take A14G G35A: the self-cleavage turned out to be 0.07.

With A14G G35C, the self-cleavage stood at 0.05.

Turning to A14G G35U, the self-cleavage was 0.15.

Regarding A14U G36A, the self-cleavage came to 0.15.

Regarding A14U G36U, the self-cleavage was determined as 0.24.

As for A14U G36C, the self-cleavage was 0.08.

Regarding A14U G29U, the self-cleavage was determined as 0.5.

On to A14U G29C, for which the self-cleavage worked out at 0.41.

As for A14U G29A, the self-cleavage worked out at 0.98.

In the case of C15G A41G, the self-cleavage was 0.04.

On to C15G A41C, for which the self-cleavage stood at 0.04.

For the variant C15G A41U, the self-cleavage is 0.06.

A14U A39U: the self-cleavage turned out to be 0.57.

As to A14U A39G, the self-cleavage came out at 0.06.

Take A14U A39C: the self-cleavage amounted to 0.14.

For A14U G44U, the self-cleavage is 0.06.

As to A14U G44A, the self-cleavage was found to be 0.13.

Consider A14U G44C, for which the self-cleavage amounted to 0.2.

On to C15G G27U, for which the self-cleavage stood at 0.04.

As for C15G G27A, the self-cleavage came out at 0.05.

For the variant C15G G27C, the self-cleavage is 0.05.

Turning to A14G G27U, the self-cleavage was 0.42.

On to A14G G27A, for which the self-cleavage amounted to 0.83.

As to A14G G27C, the self-cleavage was 0.61.

Consider A14G G30C, for which the self-cleavage came to 0.24.

As to A14G G30A, the self-cleavage is 0.28.

Take A14G G30U: the self-cleavage came out at 0.34.

Take C15A G30C: the self-cleavage was 0.05.

Regarding C15A G30A, the self-cleavage was 0.06.

As to C15A G30U, the self-cleavage came out at 0.07.

For the variant A14U U43G, the self-cleavage is 0.35.

As for A14U U43A, the self-cleavage was 0.16.

For A14U U43C, the self-cleavage turned out to be 0.07.

As to C15G C45A, the self-cleavage stood at 0.02.

Turning to C15G C45U, the self-cleavage is 0.05.

For C15G C45G, the self-cleavage came out at 0.08.

Consider C15G A16G, for which the self-cleavage was determined as 0.05.

Take C15G A16U: the self-cleavage was 0.05.

With C15G A16C, the self-cleavage was determined as 0.11.

In the case of C15A G21U, the self-cleavage worked out at 0.12.

In the case of C15A G21C, the self-cleavage is 0.11.

As for C15A G21A, the self-cleavage came to 0.16.

With A14U G19A, the self-cleavage came out at 0.53.

Consider A14U G19U, for which the self-cleavage turned out to be 0.62.

As for A14U G19C, the self-cleavage was determined as 0.15.

For A14U G30A, the self-cleavage was 0.18.

As for A14U G30C, the self-cleavage was determined as 0.14.

For the variant A14U G30U, the self-cleavage turned out to be 0.19.
